Values belong to the binder of their own block, whether it stands above or below them.
Key:
[1] = target: T1, WT DR5 recombinant protein (IgG4-Fc tagged extracellular domain of human DR5) (human, UniProt O14763-1 56-210, biotinylated with EZ-Link Sulfo-NHS-SS-Biotin for BLI); experiment: ELISA
[2] = target: T1, WT DR5 recombinant protein (IgG4-Fc …); experiment: BLI
[3] = target: T1, WT DR5 recombinant protein (IgG4-Fc …); experiment: BLI; remark: listed apart in the source
RKCSR DR5 = experiment: BLI
Chimp DR5 = experiment: BLI
RKCAR DR5 = experiment: BLI
Monkey DR5 = experiment: BLI
[4] = target: T1, WT DR5 recombinant protein (IgG4-Fc …); experiment: ELISA; remark: listed apart in the source

Kd [1]: 0.088 nM
Kd [2]: < 0.001 nM
B1: KMTR2 (antibody, V domains shown)
VH: QVQLVQSGAEMKKPGASVKVSCKTSGYTFTNYKINWVRQAPGQGLEWMGWMNPDTDSTGYPQKFQGRVTMTRNTSISTAYMELSSLRSEDTAVYYCARSYGSGSYYRDYYYGMDVWGQGTTVTVSS
VL: EIVLTQSPATLSLSPGERATLSCRASQSVSSYLAWYQQKPGQAPRLLIYDASNRATGIPARFSGSGSGTDFTLTISSLEPEDFAVYYCQQRSNWPLTFGGGTKVEIK

Kd [1]: 0.081 nM
Kd [3]: 0.0376 nM
Kd (RKCSR DR5): 0.215 nM
Kd (Chimp DR5): < 0.001 nM
Kd (RKCAR DR5): 0.266 nM
Kd (Monkey DR5): 0.014 nM
Kd [2]: 0.519 nM
Kd [4]: 0.032 nM
B2: Lexatumumab (antibody, V domains shown)
VH: EVQLVQSGGGVERPGGSLRLSCAASGFTFDDYGMSWVRQAPGKGLEWVSGINWNGGSTGYADSVKGRVTISRDNAKNSLYLQMNSLRAEDTAVYYCAKILGAGRGWYFDLWGKGTTVTVSS
VL: SSELTQDPAVSVALGQTVRITCQGDSLRSYYASWYQQKPGQAPVLVIYGKNNRPSGIPDRFSGSSSGNTASLTITGAQAEDEADYYCNSRDSSGNHVVFGGGTKLTVL

Source: article PMC8720280 (2021)
